Experimental findings from US20120237496 are described below.

One series addresses T1, Peptide-3.
T1 chain: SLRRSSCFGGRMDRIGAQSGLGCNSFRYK

A further series has as its target T2, Peptide-6b.
T2 chain: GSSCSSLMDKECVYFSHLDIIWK

The next series addresses T3, Peptide-6a.
T3 chain: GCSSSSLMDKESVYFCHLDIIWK

The target in the next series is T4, Peptide-13 (not fully specified).
T4 chain: CRPPGFSPFRK

In the next series the target is T5, Peptide-5 (not fully specified).
T5 chain: CDRVYIHPFHLK

In a further series the target is T6, Peptide-8 (not fully specified).
T6 chain: CQLYENKPRRPYILK

B1: C18 (protein)
chain: YPYDVPDYAYPYDVPDYAYPYDVPDYAGSYDDGICKSSDCIKSAARLIQNMDATTEPCTDFFKYACGGWLKRNVIPETSSRYGNFDILRDELEVVLKDVLQEPKTEDIVAVQKAKALYRSCINESAIDSRGGEPLLKLLPDIYGWPVATENWEQKYGASWTAEKAIAQLNSKYGKKVLINLFVGTDDKNSVNHVIHIDQPRLGLPSGDYYECTGIYKEACTAYVDFMISVARLIRQEERLPIDENQLALEMNKVMELEKEIANATAKPEDRNDPMLLYNKMTLAQIQNNFSLEINGKPFSWLNFTNEIMSTVNISITNEEDVVVYAPEYLTKLKPILTKYSARDLQNLMSWRFIMDLVSSLSRTYKESRNAFRKALYVTTSETATWRRCANYVNGNMMNAVGRLYVEAAFAGESKHVVEDLIAQIREVFIQTLDDLTWMDAETKKRAEEKALAIKERIGYPDDIVSNDNKLNNEYLELNYKEDEYFENIIQNLKFSQSKQLKKLREKVDKDEWISGAAVVNAFYSSGRNQIVFPAGILQPPFFSAQQSNSLNYGGIGMVIGHEITHGFMDNVRNFNKDWDLVDWWTQQSASNFKEQSQCMVYQYGNFSWDLAGGQHLNGINTLGENIADNGGLGQAYRAYQNYIKKNGEEKLLPGLDLNHKQLFFLNFAQVWCGTYRPEYAVNSIKTDVHSPKNFRIIGTLQNSAEFSEAFHCRKNSYMNPEKKCRVW
For B1, the kapp ratio vs G399V/G714K (B1) worked out at 0.24 fold with Peptide-3; 0.26 fold with Peptide-6b; 2.29 fold with Peptide-2; 0.36 fold with Peptide-6a; 0.5 fold in the series with Peptide-13; 0.16 fold with Peptide-5. Moreover, the kapp ratio vs G399V/G714K (B1) with Peptide-8 is 0.73 fold; with Peptide-7, 0.67 fold; with Peptide-1, 2.56 fold; with Peptide-4, 0.59 fold.

B2: C19 (protein)
chain: YPYDVPDYAYPYDVPDYAYPYDVPDYAGSYDDGICKSSDCIKSAARLIQNMDATTEPCTDFFKYACGGWLKRNVIPETSSRYGNFDILRDELEVVLKDVLQEPKTEDIVAVQKAKALYRSCINESAIDSRGGEPLLKLLPDIYGWPVATENWEQKYGASWTAEKAIAQLNSKYGKKVLINLFVGTDDKNSVNHVIHIDQPRLGLPSGDYYECTGIYKEACTAYVDFMISVARLIRQEERLPIDENQLALEMNKVMELEKEIANATAKPEDRNDPMLLYNKMTLAQIQNNFSLEINGKPFSWLNFTNEIMSTVNISITNEEDVVVYAPEYLTKLKPILTKYSARDLQNLMSWRFIMDLVSSLSRTYKESRNAFRKALYVTTSETATWRRCANYVNGNMMNAVGRLYVEAAFAGESKHVVEDLIAQIREVFIQTLDDLTWMDAETKKRAEEKALAIKERIGYPDDIVSNDNKLNNEYLELNYKEDEYFENIIQNLKFSQSKQLKKLREKVDKDEWISGAAVVNAFYSSGRNQIVFPAGILQPPFFSAQQSNSLNYGGIGMVIGHEITHGFMDNGRNPNKDLDLVDWWTQQSASNFKEQSQCMVYQYGNFSWDLAGGQHLNGINTLGENIADNGGLGQAYRAYQNYIKKNGEEKLLPGLDLNHKQLFFLNFAQVWCGTYRPEYAVNSIKTDVHSPKNFRIIGTLQNSAEFSEAFHCRKNSYMNPEKKCRVW
As to B2, the kapp ratio vs G399V/G714K (B1) with Peptide-3 amounted to 0.24 fold; in the series with Peptide-6b it was 0.19 fold; with Peptide-2, 2.34 fold; in the series with Peptide-6a it was 0.29 fold; in the series with Peptide-13, 0.33 fold; with Peptide-5 it was 0.15 fold. For the same protein, the kapp ratio vs G399V/G714K (B1) worked out at 0.29 fold with Peptide-8, 0.34 fold in the series with Peptide-7, 2.33 fold in the series with Peptide-1 and 0.67 fold with Peptide-4.
